# Laboratory results from patent publication US20260151494A1 (ARO BIOTHERAPEUTICS, published 2026).
# Residue numbers refer to the chain shown, from its start.
# B1: CD71-binding FN3 domain SEQ ID NO 380 (designed binder)
# chain: MLPAPKNLVVSRVTEDSARLSWTAPDAAFDSFFIGYLEPQPPGEAIGLFVPGSERSYDLTGLKPGTEYNVTIQGVKGGFPSMPLSAIFTT
# B2: CD71-binding FN3 domain SEQ ID NO 382 (designed binder)
# chain: B1 chain with G47E, F49Y, M82D, S85E, I87D
# B3: CD71-binding FN3 domain SEQ ID NO 355 (designed binder)
# chain: B1 chain with G47H, F49Y, M82H, S85Y, I87D
# B4: CD71-binding FN3 domain SEQ ID NO 347 (designed binder)
# chain: B1 chain with M82E, S85K, I87A
# B5: CD71-binding FN3 domain SEQ ID NO 357 (designed binder)
# chain: B1 chain with M82D, S85V, I87Y
# B6: CD71-binding FN3 domain SEQ ID NO 360 (designed binder)
# chain: B1 chain with G47S, F49Y, M82H, S85L, I87V
# B7: CD71-binding FN3 domain SEQ ID NO 398 (designed binder)
# chain: B1 chain with G47Y, F49T, M82K, S85T, I87N
# B8: CD71-binding FN3 domain SEQ ID NO 387 (designed binder)
# chain: B1 chain with G47H, F49V, M82D, S85Y, I87W
# B9: CD71-binding FN3 domain SEQ ID NO 373 (designed binder)
# chain: B1 chain with G47S, M82D, S85V, I87S
# B10: CD71-binding FN3 domain SEQ ID NO 376 (designed binder)
# chain: B1 chain with G47A, F49L, M82N, S85E, I87K
# B11: CD71-binding FN3 domain SEQ ID NO 391 (designed binder)
# chain: B1 chain with V9I, G47S, F49Y, M82D, S85Q
# B12: CD71-binding FN3 domain SEQ ID NO 363 (designed binder)
# chain: B1 chain with G47D, F49W, M82L
# B13: CD71-binding FN3 domain SEQ ID NO 392 (designed binder)
# chain: B1 chain with G47H, F49G, M82L, S85V, I87T
# B14: CD71-binding FN3 domain SEQ ID NO 393 (designed binder)
# chain: B1 chain with M82L, S85Q, I87H
# B15: CD71-binding FN3 domain SEQ ID NO 389 (designed binder)
# chain: B1 chain with G47H, F49L, F88V
# B16: CD71-binding FN3 domain SEQ ID NO 346 (designed binder)
# chain: B1 chain with G47S, M82D, S85N, I87T, T89N
# B17: CD71-binding FN3 domain SEQ ID NO 349 (designed binder)
# chain: B1 chain with G47E, F49Y, M82E, S85I, I87H
# B18: CD71-binding FN3 domain SEQ ID NO 350 (designed binder)
# chain: B1 chain with G47S, S85V, I87Q
# B19: CD71-binding FN3 domain SEQ ID NO 377 (designed binder)
# chain: B1 chain with G47Q, F49W, M82T, S85Q, I87L
# B20: CD71-binding FN3 domain SEQ ID NO 385 (designed binder)
# chain: B1 chain with G47D, F49Y, M82H, S85Q, I87H
# B21: CD71-binding FN3 domain SEQ ID NO 364 (designed binder)
# chain: B1 chain with K6N, G47H, M82G, S85H, I87T
# B22: CD71-binding FN3 domain SEQ ID NO 351 (designed binder)
# chain: B1 chain with G47T, F49A, M82N, S85L, I87A
# B23: CD71-binding FN3 domain SEQ ID NO 383 (designed binder)
# chain: B1 chain with G47D, F49W, M82L, S85D, I87V
# B24: CD71-binding FN3 domain SEQ ID NO 369 (designed binder)
# chain: B1 chain with G47V, F49W, M82H, S85V, I87K, F88S
# B25: CD71-binding FN3 domain SEQ ID NO 394 (designed binder)
# chain: B1 chain with G47Y, F49L, M82T, S85E, I87S
# B26: CD71-binding FN3 domain SEQ ID NO 368 (designed binder)
# chain: B1 chain with G47T, F49T, M82G, S85I, I87S
# B27: CD71-binding FN3 domain SEQ ID NO 395 (designed binder)
# chain: B1 chain with A27T, M82D, I87F
# B28: CD71-binding FN3 domain SEQ ID NO 375 (designed binder)
# chain: B1 chain with G47D, F49T
# B29: CD71-binding FN3 domain SEQ ID NO 354 (designed binder)
# chain: B1 chain with G47Q, F49W, M82L, S85V, I87T
# B30: CD71-binding FN3 domain SEQ ID NO 365 (designed binder)
# chain: B1 chain with G47V, F49W, M82H, S85V, I87K
# B31: CD71-binding FN3 domain SEQ ID NO 396 (designed binder)
# chain: B1 chain with G47Y, F49T
# B32: CD71-binding FN3 domain SEQ ID NO 401 (designed binder)
# chain: B1 chain with G47A, F49W, V70I, S85V, I87N
# B33: CD71-binding FN3 domain SEQ ID NO 353 (designed binder)
# chain: B1 chain with M82N, S85E, I87R
# B34: CD71-binding FN3 domain SEQ ID NO 378 (designed binder)
# chain: B1 chain with G47D, F49W, M82T, S85I, I87T, F88V
# B35: CD71-binding FN3 domain SEQ ID NO 372 (designed binder)
# chain: B1 chain with G47N, F49L, M82L, S85L, I87E
# B36: CD71-binding FN3 domain SEQ ID NO 399 (designed binder)
# chain: B1 chain with G47T, F49Y, M82T, S85T, I87T
# B37: CD71-binding FN3 domain SEQ ID NO 361 (designed binder)
# chain: B1 chain with G47Q, M82I, I87L
# B38: CD71-binding FN3 domain SEQ ID NO 400 (designed binder)
# chain: B1 chain with G47H, M82G, S85H, I87T
# B39: CD71-binding FN3 domain SEQ ID NO 356 (designed binder)
# chain: B1 chain with V13I, G47T, F49L, G52A, M82H, S85Q, I87Q
# B40: CD71-binding FN3 domain SEQ ID NO 366 (designed binder)
# chain: B1 chain with G47D, F49W, M82N, S85K, I87Q
# Target: T1, human CD71 extracellular domain (human, UniProt P02786 89-760)
# T1 construct: also called hCD71; CD71-ECD
# T1 sequence (P02786 89-760): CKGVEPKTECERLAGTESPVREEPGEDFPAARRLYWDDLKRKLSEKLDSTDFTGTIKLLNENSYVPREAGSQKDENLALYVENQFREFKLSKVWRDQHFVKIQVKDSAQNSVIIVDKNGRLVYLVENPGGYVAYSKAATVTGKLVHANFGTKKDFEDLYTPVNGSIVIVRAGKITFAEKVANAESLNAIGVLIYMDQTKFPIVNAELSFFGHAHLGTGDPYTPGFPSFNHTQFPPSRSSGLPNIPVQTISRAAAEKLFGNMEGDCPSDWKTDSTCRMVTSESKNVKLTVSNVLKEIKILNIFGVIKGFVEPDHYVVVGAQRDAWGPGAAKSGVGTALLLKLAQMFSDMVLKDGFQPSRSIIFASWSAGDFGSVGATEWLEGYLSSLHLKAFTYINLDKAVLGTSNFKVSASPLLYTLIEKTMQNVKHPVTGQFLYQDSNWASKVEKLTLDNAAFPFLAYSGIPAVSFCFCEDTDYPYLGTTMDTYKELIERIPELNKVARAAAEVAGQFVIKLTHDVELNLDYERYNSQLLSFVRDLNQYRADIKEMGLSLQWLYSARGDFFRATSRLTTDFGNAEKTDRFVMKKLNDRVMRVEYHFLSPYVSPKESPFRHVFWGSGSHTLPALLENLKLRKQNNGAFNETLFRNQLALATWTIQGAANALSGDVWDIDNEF
# Experiment: primary ELISA; also: test concentration or dose not given here
row,RLU [RLU],Binder
1,5.32e+06,B1
2,2.01e+06,B2
3,3.58e+06,B3
4,4.1e+06,B4
5,5.62e+06,B5
6,5.78e+06,B6
7,2.12e+06,B7
8,1.79e+06,B8
9,4.86e+06,B9
10,5.96e+06,B10
11,2.78e+06,B11
12,4.18e+06,B12
13,4.77e+06,B13
14,4.39e+06,B14
15,5.82e+06,B15
16,5e+06,B16
17,6.37e+06,B17
18,5.96e+06,B18
19,1.57e+06,B19
20,5.74e+06,B20

row,RLU [RLU],Binder
1,5.83e+06,B21
2,2.67e+06,B22
3,1.85e+06,B23
4,3.82e+06,B24
5,2.86e+06,B25
6,5.53e+06,B26
7,5.11e+06,B27
8,2.82e+06,B28
9,5.75e+06,B29
10,6.85e+06,B30
11,2.23e+06,B31
12,5.64e+06,B32
13,4.54e+06,B33
14,6.12e+06,B34
15,2.8e+06,B35
16,5.88e+06,B36
17,3.08e+06,B37
18,5.67e+06,B38
19,3.92e+06,B39
20,2.29e+06,B40

# Target: T2, human apical domain of CD71 (human, UniProt P02786 189-383, limits assumed)
# T2 construct: domain: apical domain
# T2 sequence (P02786 189-383 limits assumed): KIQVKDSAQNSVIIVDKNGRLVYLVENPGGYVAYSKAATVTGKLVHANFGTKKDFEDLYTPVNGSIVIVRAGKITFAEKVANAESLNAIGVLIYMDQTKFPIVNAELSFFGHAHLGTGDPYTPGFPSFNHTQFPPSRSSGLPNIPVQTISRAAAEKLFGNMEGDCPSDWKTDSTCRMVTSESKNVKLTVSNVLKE
# Experiment: primary ELISA; also: test concentration or dose not given here
row,RLU [RLU],Binder
1,6.5e+06,B1
2,2.55e+06,B2
3,5.91e+06,B3
4,5.95e+06,B4
5,6.34e+06,B5
6,5.37e+06,B6
7,2.07e+06,B7
8,3.88e+06,B8
9,5.73e+06,B9
10,6.47e+06,B10
11,4.19e+06,B11
12,4.91e+06,B12
13,3.9e+06,B13
14,6.09e+06,B14
15,6.19e+06,B15
16,6.82e+06,B16
17,6.87e+06,B17
18,6.7e+06,B18
19,3.43e+06,B19
20,5.91e+06,B20

row,RLU [RLU],Binder
1,6.5e+06,B21
2,2.87e+06,B22
3,4.33e+06,B23
4,3.66e+06,B24
5,5.66e+06,B25
6,6.23e+06,B26
7,6.59e+06,B27
8,2.09e+06,B28
9,5.25e+06,B29
10,6.7e+06,B30
11,2.47e+06,B31
12,5.82e+06,B32
13,6.87e+06,B33
14,6.12e+06,B34
15,4.63e+06,B35
16,5.04e+06,B36
17,5.01e+06,B37
18,6.54e+06,B38
19,6.37e+06,B39
20,3.37e+06,B40

# Target: T1, human CD71 extracellular domain
# Experiment: primary ELISA; signal over HSA control; as to RLU: test concentration or dose not given here
row,hCD71:HSA [ratio],Binder
1,21,B1
2,160,B2
3,257,B3
4,116,B4
5,16,B5
6,155,B6
7,132,B7
8,203,B8
9,98,B9
10,153,B10
11,108,B11
12,273,B12
13,237,B13
14,42,B14
15,121,B15
16,61,B16
17,22,B17
18,127,B18
19,125,B19
20,142,B20

row,hCD71:HSA [ratio],Binder
1,60,B21
2,322,B22
3,94,B23
4,172,B24
5,218,B25
6,218,B26
7,72,B27
8,187,B28
9,155,B29
10,67,B30
11,165,B31
12,41,B32
13,53,B33
14,76,B34
15,124,B35
16,297,B36
17,210,B37
18,141,B38
19,207,B39
20,213,B40

# Target: T2, human apical domain of CD71
# Experiment: primary ELISA; signal over HSA control; as to RLU: test concentration or dose not given here
row,Apical domain:HSA [ratio],Binder
1,25,B1
2,203,B2
3,424,B3
4,168,B4
5,18,B5
6,144,B6
7,129,B7
8,441,B8
9,115,B9
10,167,B10
11,163,B11
12,320,B12
13,194,B13
14,58,B14
15,129,B15
16,83,B16
17,23,B17
18,143,B18
19,274,B19
20,146,B20

row,Apical domain:HSA [ratio],Binder
1,67,B21
2,345,B22
3,220,B23
4,165,B24
5,430,B25
6,246,B26
7,92,B27
8,139,B28
9,142,B29
10,65,B30
11,183,B31
12,42,B32
13,80,B33
14,76,B34
15,205,B35
16,255,B36
17,342,B37
18,163,B38
19,337,B39
20,313,B40
